System: Bacillus subtilis
Assay: cleaved RNA product abundance (RNA/gDNA barcode ratio) relative to median wild-type variant (ratio to wild type); higher = more accumulation of the downstream cleavage product
In short: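 Cleaved product abundance for each construct is its RNA-to-gDNA barcode ratio, scaled to the median construct carrying the unmutated site. Cleaved RNA was isolated on a gel, reverse transcribed and barcode-sequenced, with genomic DNA barcodes sequenced alongside and UMIs collapsed. The reporters were truncated aprE or tetM mRNAs with barcoded, mutagenized RNase Y cleavage-site windows integrated into the B. subtilis chromosome, and cultures grew in LB at 37°C from OD600 0.0003 to 0.3.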

[1] = experiment (reporter, strain, medium): exp 4a: truncated aprE reporter, strain BJT201 with 2% xylose (RNase J1 expressed), cleavage site: cggR-gapA (positions -7 to +36 mutated)
[2] = experiment (reporter, strain, medium): exp 2b: truncated aprE reporter, strain BJT200, cleavage site: cggR-gapA (positions -7 to +36 mutated)
[3] = experiment (reporter, strain, medium): exp 8a: truncated aprE reporter, strain BJT201 with 2% xylose (RNase J1 expressed), cleavage site: glnRA (positions -5 to +31 mutated)
[4] = experiment (reporter, strain, medium): exp 6: tetM reporter, strain 168, cleavage site: cggR-gapA (positions -7 to +36 mutated)

Sequence	cleaved RNA product abundance [1]	cleaved RNA product abundance [3]	other results
ACAGACGAAGGAGCCGCTAAGAAGTTATTAAGGGAAGAATAATCCCTCAATATAAATATCTCTCACTTATTTAAA	0.638	–	–
ACAGACGAAGGAGCCGCAAAGAAGTTATTAAGAGATGAATAATCCCACAATATAAATATCTCTCACTTATTTAAA	0.1	–	cleaved RNA product abundance [2]: 0.0945
CGACATGTCCCGCTTCTTTCATTAATCCGTTAGAAACTGTTTTGCTATATACTTTTACCTTTTAAGAGGAGGAAT	–	0.217	–
CGACATGTCCCGCTTCTTTCATTAATCCGTTAGAAACTGTTTTGCTATATACATCTACCTTTTAAGAGGAGGAAT	–	0.228	–
ACAGACGAAGGAGCCGCAAAGAAGTTATTAAGGGATCAATAATACCTAAATATAAATATCTCTCACTTATTTAAA	0.0917	–	–
ACAGACGAAGGAGCCGCAAAGAAGTTATTAAGGGATGCATAATCCCTCAATAAAAATATCTCTCACTTATTTAAA	0.139	–	–
ACAGACGAAGGAGCCGCAAATTAGTTATTAATGGATGAATAATCCCTCAATATAAATATCTCTCACTTATTTAAA	0.153	–	–
ACAGACGAAGGAGCCGCAAAGAAGTTATTAAGGGCTGAATAAACCCTCAATATAAATATCTCTCACTTATTTAAA	0.47	–	–
CGACATGTCCCGCTTCTTTCATTAAGCCGTTATCAACTGTTTTGCTATATTCATTTACCTTTTAAGAGGAGGAAT	–	0.0648	–
CGACATGTCCCGCTTCTTTCATTAATCCGTTAGCAACTGTTTTGTTATATATATTTACCTTTTAAGAGGAGGAAT	–	0.298	–
ACAGACGAAGGAGCCGCAAAGAAGTTATTAAGAGATGAATAATCACTCAATATAAATATCTCTCACTTATTTAAA	0.127	–	cleaved RNA product abundance [2]: 0.0955
ACAGACGAAGGAGCCGCAAAGAAGTTATTAAGGGATGAATAAGCCCTCAAAATAAATATCTCTCACTTATTTAAA	0.261	–	–
ACAGACGAAGGAGCCGCAAAGAAGTTATTAACGGATGAATAATCCCTCAATATACATATCTCTCACTTATTTAAA	0.231	–	–
CGACATGTCCCGCTTCTTTCATTAATCCGTTAGCAACTGTTTTGATATATACATTAACCTTTTAAGAGGAGGAAT	–	0.832	–
CGACATGTCCCGCTTCTTTCATTAATCCGTTAGCAACTGTTTTTTTATATACATTTACCTTTTAAGAGGAGGAAT	–	0.718	–
CGACATGTCCCGCTTCTTTCATTAATCCGTTAGAAACTGTTTTGCTGTATACATTCATCTTTTAAGAGGAGGAAT	–	0.0887	–
ACAGACGAAGGAGCCGCAAAGAAGTTATTAAGGTATGAATAATCCCTCAAGATAAATATCTCTCACTTATTTAAA	0.151	–	cleaved RNA product abundance [2]: 0.111
ACAGACGAAGGAGCCGCAAAGAAGTTATTAAGGGGTGAAAAATCCCTCAATATAAATATCTCTCACTTATTTAAA	0.504	–	–
ACAGACGAAGGAGCCGCAAAGAAGTAATTAAGGGATGAATAAGCCCTCAATATAAATATCTCTCACTTATTTAAA	0.149	–	–
ACAGACGAAGGAGCCGCAAAGAAGTTATTAAGGGACGAATAATCCCGCAATATAAATATCTCTCACTTATTTAAA	0.132	–	–
ACAGACGAAGGAGCCGCAAAGAAGTTATTAAGGGATGAATAATCCCCTCAATATAAATATCTCTCACTTATTTAA	0.364	–	cleaved RNA product abundance [2]: 0.181

Sequence	cleaved RNA product abundance [1]	cleaved RNA product abundance [3]	other results
CGACATGTCCCGCTTCTTTCATTAATCCGTTAACAACTGTTTTGCTATATACATATACCTTTTAAGAGGAGGAAT	–	0.195	–
CGACATGTCCCGCTTCTTTCATTAATCCGTTAGCAACTGTTTTGCTATATACCTTAACCTTTTAAGAGGAGGAAT	–	0.281	–
ACAGACGAAGGAGCCGCAAAGAAGTTACTAAGGGGTGAATAATCCCTCAATATAAATATCTCTCACTTATTTAAA	–	–	cleaved RNA product abundance [2]: 0.144
CGACATGTCCCGCTTCTTTCATTAATTCGTTAGCAACTGTTTAGCTATATACATTTACCTTTTAAGAGGAGGAAT	–	0.488	–
ACAGACGAAGGAGCCGCAAAGAAGTTATTAAGGGATGAATAACCCCTCCATATAAATATCTCTCACTTATTTAAA	0.178	–	–
ACAGACGAAGGAGCCGCAAAGAAGTTATTAAGGGATAGATAATCCCTCAATATAAATATCTCTCACTTATTTAAA	0.791	–	–
ACAGACGAAGGAGCCGCAAAGAAGTTATTAAGGGATGAATAATCCCTCAATATAACTATCTCTCACTTATTTAAA	0.146	–	cleaved RNA product abundance [2]: 0.201; cleaved RNA product abundance [4]: 0.267
ACAGACGAAGGAGCCGCAAAGAAGTTATTAAGGGATGAATAATACCACAATATAAATATCTCTCACTTATTTAAA	0.0911	–	cleaved RNA product abundance [2]: 0.0894
ACAGACGAAGGAGCCGCAAAGAAGTTTTTAAAGGATGAATAATCCCTCAATATAAATATCTCTCACTTATTTAAA	0.192	–	–
ACAGACGAAGGAGCCGCAACGAAGTTATTAAGTGATGAATAATCCCTCAATATAAATATCTCTCACTTATTTAAA	0.13	–	cleaved RNA product abundance [2]: 0.0825
CGACATGTCCCGCTTCTTTCATTAATCCGTTAGCAACTCATTTGCTATATACATTTACCTTTTAAGAGGAGGAAT	–	1.46	–
CGACATGTCCCGCTTCTTTCATTAATCCGTCAGCAACTGTTTTGTTATATACATTTACCTTTTAAGAGGAGGAAT	–	0.485	–
ACAGACGAAGGAGCCGCAAAGAAGTTATTAAGGGATGTATAATCGCTCAATATAAATATCTCTCACTTATTTAAA	0.173	–	–
CGACATGTCCCGCTTCTTTCATTATTCCGTTAGCAACTGTTTTGCTATATACATTTACTTTTTAAGAGGAGGAAT	–	1.96	–
CGACATGTCCCGCTTCTTTCATTAATCCGTTAGCAACTGTTGTACTATATACATTTACCTTTTAAGAGGAGGAAT	–	0.713	–
ACAGACGAAGGAGCCGCAAAGAAGTTATTAAGGGGTGAATAATCCCTAAATATAAATATCTCTCACTTATTTAAA	0.554	–	–
ACAGACGAAGGAGCCGCAAAAAAATTATTAAGGGATGAATAATCCCTCATTATAAATATCTCTCACTTATTTAAA	0.267	–	–
CGACATGTCCCGCTTCTTTCATTAATCCGTTAGCAACTGTTTTGCTATATACATTAACCTTTTAAGAGGAGGAAT	–	1.37	–
ACAGACGAAGGAGCCGCAAAGAAGTTATCAAGGGATAAATAATCCCTCAATATAAATATCTCTCACTTATTTAAA	0.234	–	–
ACAGACGAAGGAGCCGCAAAGAAGTTATTAAGGGATGAATAATGCCTAAATATAAATATCTCTCACTTATTTAAA	0.149	–	–
ACAGACGAAGGAGCCGCAAAAAAGTTATTAAGGGAAGAATAATCCCTCAATATAAATATCTCTCACTTATTTAAA	0.403	–	cleaved RNA product abundance [2]: 0.426

Sequence	cleaved RNA product abundance [1]	cleaved RNA product abundance [3]	other results
ACAGACGAAGGAGCCGCAAAGAAGTTATTAAGGGTTGAATAATCCCTCAATATATATATCTCTCACTTATTTAAA	0.371	–	–
ACAGACGAAGGAGCCGCAAAGAAGTTATTAAGGGATGAATACTCCCTCAATTTAAATATCTCTCACTTATTTAAA	0.167	–	–
ACAGACGAAGGAGCCGCAAAGAAGTTATTACGGGATGAATAATCCCTCAATATAGATATCTCTCACTTATTTAAA	0.351	–	–
CGACATGTCCCGCTTCTTTCATTAATGCGTTAGCAACTGTTTTTCTATATACATTTACCTTTTAAGAGGAGGAAT	–	0.479	–
ACAGACGAAGGAGCCGCAAAGAAGTTATTAAGCGATGAATAATCCCACAATATAAATATCTCTCACTTATTTAAA	0.0785	–	–
CGACATGTCCCGCTTCTTTCATTAATTCGTTAGCAACTGTTATGCTATATACATTTACCTTTTAAGAGGAGGAAT	–	1.05	–
ACAGACGAAGGAGCCGCAAAGAAGTCATAAAGGGATGAATAATCCCTCAATATAAATATCTCTCACTTATTTAAA	0.198	–	–
ACAGACGAAGGAGCCGCAAAGAAGTGATTAAGGGATGAAAAATCCCTCAATATAAATATCTCTCACTTATTTAAA	0.399	–	–
CGACATGTCCCGCTTCTTTCATTAATCCGTTAACAACTGTTTTCCTATATACATTTACCTTTTAAGAGGAGGAAT	–	0.263	–
ACAGACGAAGGAGCCGCAGAGAAGTTATAAAGGGATGAATAATCCCTCAATATAAATATCTCTCACTTATTTAAA	0.295	–	–
ACAGACGAAGGAGCCGCAAAGATATTATTAAGGGATGAATAATCCCTCAATATAAATATCTCTCACTTATTTAAA	0.459	–	cleaved RNA product abundance [2]: 0.93
CGACATGTCCCGCTTCTTTCATTAATCCGTTAGCAACTGTTTTCCTATATACATTTATCTTTTAAGAGGAGGAAT	–	0.55	–
CGACATGTCCCGCTTCTTTCATTAATCCGTTAGCAACTGTTATGCTATATACCTTTACCTTTTAAGAGGAGGAAT	–	0.184	–
CGACATGTCCCGCTTCTTTCATTAATCCATTAGCAACTGTTTTGCTATATACATATACCTTTTAAGAGGAGGAAT	–	0.929	–
CGACATGTCCCGCTTCTTTCATTAATCCGTTACCTACTGTTTTGCTATATACATTTACCTTTTAAGAGGAGGAAT	–	0.443	–
ACAGACGAAGGAGCCGCAACGAAGTTATTAAGGGATGAATAATCCCTCAATATACATATCTCTCACTTATTTAAA	0.706	–	–
ACAGACGAAGGAGCCGCAAAGAAGTTATTAAGAGATGAATAAACCCTCAATATAAATATCTCTCACTTATTTAAA	0.0846	–	cleaved RNA product abundance [2]: 0.148; cleaved RNA product abundance [4]: 0.115
ACAGACGAAGGAGCCGCAAAGAAATTATTAAGGGATGAATAATCCATCAAGATAAATATCTCTCACTTATTTAAA	0.118	–	–
ACAGACGAAGGAGCCGCAAAGCAGTTATTAAGTGATGAATAATCCCTCAATATAAATATCTCTCACTTATTTAAA	0.0809	–	–
